Columns and labels:
[1] = target: T1, CST g3.1 (human, UniProt Q2NKJ3;Q9H668;Q86WV5 1-1217;1-368;1-123, K1167E;CTC1:K1164E); experiment: EMSA
[2] = target: T2, CST g1.1 (human, UniProt Q2NKJ3;Q9H668;Q86WV5 1-1217;1-368;1-123, E951K;CTC1:Y949A); experiment: EMSA
[3] = target: T3, CST g2.1 (human, UniProt Q2NKJ3;Q9H668;Q86WV5 1-1217;1-368;1-123, N981D;Y983A;CTC1:R978E); experiment: EMSA
[4] = target: T2, CST g1.1; experiment: fluorescence anisotropy
[5] = target: T1, CST g3.1; experiment: fluorescence anisotropy
[6] = target: T3, CST g2.1; experiment: fluorescence anisotropy
[7] = target: CST g4.1 (negative control mutant) (human, UniProt Q2NKJ3;Q9H668;Q86WV5 1-1217;1-368;1-123, R744E;CTC1:K743E); experiment: fluorescence anisotropy
Sequence of CST g4.1 (negative control mutant) (Q2NKJ3 whole entry R744E, chain 1 of 3): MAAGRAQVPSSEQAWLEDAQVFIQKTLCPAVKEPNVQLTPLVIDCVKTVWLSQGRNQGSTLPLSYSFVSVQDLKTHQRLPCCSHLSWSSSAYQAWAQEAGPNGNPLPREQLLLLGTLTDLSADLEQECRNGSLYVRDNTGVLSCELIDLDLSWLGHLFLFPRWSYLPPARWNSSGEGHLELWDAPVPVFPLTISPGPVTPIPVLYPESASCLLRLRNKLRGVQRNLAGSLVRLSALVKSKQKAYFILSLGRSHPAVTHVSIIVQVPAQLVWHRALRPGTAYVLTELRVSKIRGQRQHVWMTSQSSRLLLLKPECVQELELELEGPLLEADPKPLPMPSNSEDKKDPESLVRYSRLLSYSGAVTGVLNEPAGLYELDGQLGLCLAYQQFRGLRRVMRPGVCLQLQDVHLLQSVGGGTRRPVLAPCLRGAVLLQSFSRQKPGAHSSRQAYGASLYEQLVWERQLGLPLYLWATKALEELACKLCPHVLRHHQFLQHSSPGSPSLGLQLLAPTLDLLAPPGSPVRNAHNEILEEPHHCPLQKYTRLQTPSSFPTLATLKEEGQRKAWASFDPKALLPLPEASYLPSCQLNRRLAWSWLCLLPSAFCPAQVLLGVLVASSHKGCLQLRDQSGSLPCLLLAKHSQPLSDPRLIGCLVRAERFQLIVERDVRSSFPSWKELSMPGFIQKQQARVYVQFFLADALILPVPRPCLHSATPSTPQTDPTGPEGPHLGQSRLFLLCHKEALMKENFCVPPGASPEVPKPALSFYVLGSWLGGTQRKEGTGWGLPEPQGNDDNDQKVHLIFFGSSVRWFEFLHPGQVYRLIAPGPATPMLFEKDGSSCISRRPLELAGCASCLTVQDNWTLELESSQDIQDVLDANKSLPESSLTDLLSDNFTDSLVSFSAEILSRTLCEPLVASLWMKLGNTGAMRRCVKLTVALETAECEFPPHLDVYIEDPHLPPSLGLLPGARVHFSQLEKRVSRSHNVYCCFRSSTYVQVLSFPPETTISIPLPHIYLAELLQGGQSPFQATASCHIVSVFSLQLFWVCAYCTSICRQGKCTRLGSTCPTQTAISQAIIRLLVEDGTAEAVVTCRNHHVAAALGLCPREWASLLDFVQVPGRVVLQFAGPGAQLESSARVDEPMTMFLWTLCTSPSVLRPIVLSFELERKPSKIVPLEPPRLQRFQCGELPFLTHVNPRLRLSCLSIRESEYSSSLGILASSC
Sequence of CST g4.1 (negative control mutant) (Q9H668 whole entry, stated change not applied, chain 2 of 3): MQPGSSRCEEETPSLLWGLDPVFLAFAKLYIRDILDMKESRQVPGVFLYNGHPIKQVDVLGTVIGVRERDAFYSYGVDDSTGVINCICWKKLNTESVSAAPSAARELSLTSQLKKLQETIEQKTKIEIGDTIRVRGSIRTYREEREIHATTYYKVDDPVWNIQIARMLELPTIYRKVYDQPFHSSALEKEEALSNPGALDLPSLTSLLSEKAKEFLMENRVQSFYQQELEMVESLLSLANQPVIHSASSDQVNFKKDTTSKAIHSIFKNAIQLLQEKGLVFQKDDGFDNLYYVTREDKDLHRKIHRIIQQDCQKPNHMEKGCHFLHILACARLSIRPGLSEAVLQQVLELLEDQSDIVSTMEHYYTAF
Sequence of CST g4.1 (negative control mutant) (Q86WV5 whole entry, stated change not applied, chain 3 of 3): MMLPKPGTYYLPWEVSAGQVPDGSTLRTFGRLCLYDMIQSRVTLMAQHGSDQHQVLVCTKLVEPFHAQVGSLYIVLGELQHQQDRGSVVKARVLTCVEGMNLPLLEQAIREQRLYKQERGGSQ

T3 sequence (Q2NKJ3 whole entry N981D/Y983A, chain 1 of 3): as the sequence (Q2NKJ3 whole entry R744E, chain 1 of 3) above, with E744R, N981D, Y983A counted along it
T3 sequence (Q9H668 whole entry, stated change not applied, chain 2 of 3): as the sequence (Q9H668 whole entry, stated change not applied, chain 2 of 3) above
T3 sequence (Q86WV5 whole entry, stated change not applied, chain 3 of 3): as the sequence (Q86WV5 whole entry, stated change not applied, chain 3 of 3) above
T1 sequence (Q2NKJ3 whole entry K1167E, chain 1 of 3): as the sequence (Q2NKJ3 whole entry R744E, chain 1 of 3) above, with E744R, K1167E counted along it
T1 sequence (Q9H668 whole entry, stated change not applied, chain 2 of 3): as the sequence (Q9H668 whole entry, stated change not applied, chain 2 of 3) above
T1 sequence (Q86WV5 whole entry, stated change not applied, chain 3 of 3): as the sequence (Q86WV5 whole entry, stated change not applied, chain 3 of 3) above
T2 sequence (Q2NKJ3 whole entry E951K, chain 1 of 3): as the sequence (Q2NKJ3 whole entry R744E, chain 1 of 3) above, with E744R, E951K counted along it
T2 sequence (Q9H668 whole entry, stated change not applied, chain 2 of 3): as the sequence (Q9H668 whole entry, stated change not applied, chain 2 of 3) above
T2 sequence (Q86WV5 whole entry, stated change not applied, chain 3 of 3): as the sequence (Q86WV5 whole entry, stated change not applied, chain 3 of 3) above

Binder | Kd [1] [nM] | Kd [2] [nM] | Kd [3] [nM] | Kd [4] [nM] | Kd [5] [nM] | Kd [6] [nM] | Kd [7] [nM]
TTAGGGTTAGGGTTAGGG (ssDNA) [3xTEL (EMSA)] | 97 ± 27 | 133 ± 73 | 210 ± 106 |  |  |  | 
TTAGGGTTAGGGTTAGGG (ssDNA) [3xTEL (FP)] |  |  |  | ~520 | ~420 | ~800 | 2 ± 0.16
